Laboratory results as given in PMC6143168 (Nature genetics, 2018).

Molecular target: T1, EsxW wildtype (2Thr) (Mycobacterium tuberculosis H37Rv, UniProt P9WNI3 1-98)
T1 sequence: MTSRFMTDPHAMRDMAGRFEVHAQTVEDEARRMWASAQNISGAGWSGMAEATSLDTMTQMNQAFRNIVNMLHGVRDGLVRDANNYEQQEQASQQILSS
Assay: MST

B1: EsxV (natural protein)
chain: MTINYQFGDVDAHGAMIRAQAGSLEAEHQAIISDVLTASDFWGGAGSAACQGFITQLGRNFQVIYEQANAHGQKVQAAGNNMAQTDSAVGSSWA
  Kd: 600 nM
